# Source: US20170114338
# Legend:
# [1] = tested on: LBL 10081
# [2] = tested on: LBL 10097
substance,measurement,setting,value
"Anthrax lethal factor (Product #169, List Biological Laboratories, Inc)","Substrate RFUs after 5 hrs digest, LF 500 pg/ml in 1:10 diluted plasma",[1],190 RFU
same,"Substrate RFUs after 5 hrs digest, LF 1000 pg/ml in 1:10 diluted plasma",[1],256 RFU
same,"Substrate RFUs after 24 hrs digest, LF 10 pg/ml in 1:10 diluted plasma",[1],147 RFU
same,"Substrate RFUs after 24 hrs digest, LF 20 pg/ml in 1:10 diluted plasma",[1],149 RFU
same,"Substrate RFUs after 24 hrs digest, LF 50 pg/ml in 1:10 diluted plasma",[1],152 RFU
same,"Substrate RFUs after 24 hrs digest, LF 100 pg/ml in 1:10 diluted plasma",[1],161 RFU
same,"Substrate RFUs after 24 hrs digest, LF 200 pg/ml in 1:10 diluted plasma",[1],186 RFU
same,"Substrate RFUs after 24 hrs digest, LF 500 pg/ml in 1:10 diluted plasma",[1],248 RFU
same,"Substrate RFUs after 24 hrs digest, LF 1000 pg/ml in 1:10 diluted plasma",[1],354 RFU
same,"Substrate RFUs, 1 hour, LF 10 pg/ml",[1],89 RFU
same,"Substrate RFUs, 1 hour, LF 20 pg/ml",[1],87 RFU
same,"Substrate RFUs, 1 hour, LF 50 pg/ml",[1],88 RFU
same,"Substrate RFUs, 1 hour, LF 100 pg/ml",[1],88 RFU
same,"Substrate RFUs, 1 hour, LF 200 pg/ml",[1],92 RFU
same,"Substrate RFUs, 1 hour, LF 500 pg/ml",[1],97 RFU
same,"Substrate RFUs, 1 hour, LF 1000 pg/ml",[1],114 RFU
same,"Substrate RFUs, 2 hours, LF 10 pg/ml",[1],94 RFU
same,"Substrate RFUs, 2 hours, LF 20 pg/ml",[1],93 RFU
same,"Substrate RFUs, 2 hours, LF 50 pg/ml",[1],95 RFU
same,"Substrate RFUs, 2 hours, LF 100 pg/ml",[1],96 RFU
same,"Substrate RFUs, 2 hours, LF 200 pg/ml",[1],101 RFU
same,"Substrate RFUs, 2 hours, LF 500 pg/ml",[1],116 RFU
same,"Substrate RFUs, 2 hours, LF 1000 pg/ml",[1],148 RFU
same,"Substrate RFUs, 3 hours, LF 10 pg/ml",[1],98 RFU
same,"Substrate RFUs, 3 hours, LF 20 pg/ml",[1],99 RFU
same,"Substrate RFUs, 3 hours, LF 50 pg/ml",[1],100 RFU
same,"Substrate RFUs, 3 hours, LF 100 pg/ml",[1],103 RFU
same,"Substrate RFUs, 3 hours, LF 200 pg/ml",[1],111 RFU
same,"Substrate RFUs, 3 hours, LF 500 pg/ml",[1],131 RFU
same,"Substrate RFUs, 3 hours, LF 1000 pg/ml",[1],177 RFU
same,"Substrate RFUs, 4 hours, LF 10 pg/ml",[1],100 RFU
same,"Substrate RFUs, 4 hours, LF 20 pg/ml",[1],99 RFU
same,"Substrate RFUs, 4 hours, LF 50 pg/ml",[1],102 RFU
same,"Substrate RFUs, 4 hours, LF 100 pg/ml",[1],105 RFU
same,"Substrate RFUs, 4 hours, LF 200 pg/ml",[1],115 RFU
same,"Substrate RFUs, 4 hours, LF 500 pg/ml",[1],142 RFU
same,"Substrate RFUs, 4 hours, LF 1000 pg/ml",[1],202 RFU
same,"Substrate RFUs, 5 hours, LF 10 pg/ml",[1],103 RFU
same,"Substrate RFUs, 5 hours, LF 20 pg/ml",[1],102 RFU
same,"Substrate RFUs, 5 hours, LF 50 pg/ml",[1],106 RFU
same,"Substrate RFUs, 5 hours, LF 100 pg/ml",[1],111 RFU
same,"Substrate RFUs, 5 hours, LF 200 pg/ml",[1],125 RFU
same,"Substrate RFUs, 5 hours, LF 500 pg/ml",[1],157 RFU
same,"Substrate RFUs, 5 hours, LF 1000 pg/ml",[1],224 RFU
same,"Substrate RFUs after 5 hrs digest, LF 10 pg/ml in 1:10 diluted plasma",[2],224 RFU
same,"Substrate RFUs after 5 hrs digest, LF 20 pg/ml in 1:10 diluted plasma",[2],222 RFU
same,"Substrate RFUs after 5 hrs digest, LF 50 pg/ml in 1:10 diluted plasma",[2],249 RFU
same,"Substrate RFUs after 5 hrs digest, LF 100 pg/ml in 1:10 diluted plasma",[2],242 RFU
same,"Substrate RFUs after 5 hrs digest, LF 200 pg/ml in 1:10 diluted plasma",[2],256 RFU
same,"Substrate RFUs after 5 hrs digest, LF 500 pg/ml in 1:10 diluted plasma",[2],301 RFU
same,"Substrate RFUs after 5 hrs digest, LF 1000 pg/ml in 1:10 diluted plasma",[2],399 RFU
same,"Substrate RFUs after 24 hrs digest, LF 10 pg/ml in 1:10 diluted plasma",[2],227 RFU
same,"Substrate RFUs after 24 hrs digest, LF 20 pg/ml in 1:10 diluted plasma",[2],223 RFU
same,"Substrate RFUs after 24 hrs digest, LF 50 pg/ml in 1:10 diluted plasma",[2],245 RFU
same,"Substrate RFUs after 24 hrs digest, LF 100 pg/ml in 1:10 diluted plasma",[2],258 RFU
same,"Substrate RFUs after 24 hrs digest, LF 200 pg/ml in 1:10 diluted plasma",[2],286 RFU
same,"Substrate RFUs after 24 hrs digest, LF 500 pg/ml in 1:10 diluted plasma",[2],379 RFU
same,"Substrate RFUs after 24 hrs digest, LF 1000 pg/ml in 1:10 diluted plasma",[2],559 RFU
